Among the data in PMC2376138 (2002) are koff values, retold here.

The target in test [1] is T1, SC142-reactive antigen (human (endogenous in SNU16), highly glycosylated (O-glycans)). As to the kind of experiment: SPR; apparent; immobilised mAb, 1:1 Langmuir global fit. Background: In SPR one partner is held on a chip, and binding of the other changes the refractive index at the surface.
In test [2] the target is T1, SC142-reactive antigen. In words: SPR; apparent; immobilised scFv, 1:1 Langmuir global fit.

B1: SC142 monoclonal antibody (antibody, V domains shown)
VH: QVKLQQSGTEVVKPGASVKLSCKASGYIFTSYDIDWVRQTPEQGLEWIGWIFPGEGSTEYNEKFKGRATLSVDKSSSTAYMELTRLTSEDSAVYFCARGDYYRRYFDLWGQGTTVTVSS
VL: DIELTQSPTIMSASPGERVTMTCSASSSIRYIYWYQQKPGSSPRLLIYDTSNVAPGVPFRFSGSGSGTSYSLTINRMEAEDAATYYCLEWSGYPYTFGGGTKLELK
For B1, the koff in test [1] stood at 0.000825 s⁻¹.

B2: recombinant SC142 scFv (scFv, V domains shown)
VH: QVKLQQSGTEVVKPGASVKLSCKASGYIFTSYDIDWVRQTPEQGLEWIGWIFPGEGSTEYNEKFKGRATLSVDKSSSTAYMELTRLTSEDSAVYFCARGDYYRRYFDLWGQGTTVTVSS
VL: DIELTQSPTIMSASPGERVTMTCSASSSIRYIYWYQQKPGSSPRLLIYDTSNVAPGVPFRFSGSGSGTSYSLTINRMEAEDAATYYCLEWSGYPYTFGGGTKLELK
For B2, the koff in test [2] turned out to be 0.000776 s⁻¹.

For orientation: koff means the rate constant with which the complex falls apart.
